Results published in paper PMC6919976.

Target: ribosomes isolated from wildtype CHO cells (hamster (endogenous in CHO))

rate of phosphorylation of eIF2α (2 µM) by GCN2 in vitro, with wildtype ribosomes against none: 10 fold
Substance: GCN2, StrepII-tagged, purified from Sf9 cells (from UniProt Q9P2K8 1-1649) (enzyme)
